Our source for the Kd and RU max values is patent EP4414386A1 (dated 2024).

The term Kd denotes a measure of binding affinity in units of concentration. A higher Kd goes with a looser complex.

The chains are these.
B1: scFv D2B produced in prokaryotic system (bacteria) (scFv)
scFv: EVKLQESGPGLVKPSQSLSLTCSVTGYSITSGYYWNWIRQFPGNKLEWMGSISFDGNNNYNPSLRNRISITRDTSKNQFFLKLNSVTTEDTATYYCAREGDYYGSSFFTYWGQGTLVTVSSGGGGSGGGGSGGGGSALDIVMTQSPASLSASVGETVTLTCGASENIYGALNWYQRKQGKSPQLLIYGATNLADGMSSRFSGSGSGRQYSLKISSLHPDDVATYYCQNVFRTYTFGGGTKLEIKRAAAHHHHHH
notes: also called ScFvD2B from bacteria; scFv produced in bacteria; not shown: Myc tag
B2: scFv D2B produced in eukaryotic mammalian cells (scFv)
scFv: B1 scFv
notes: also called ScFvD2B from eukaryote; scFv produced in eukaryotic mammalian cells
B3: scFv D2B produced by synthesis (folded scFv D2B compound 27) (scFv)
scFv: B1 scFv
modifications: pyroglutamic acid (<E) at position 1
notes: Fully chemically synthesised, 254 residues, two disulfide bonds (C22-C96 and C161-C226); segment 5 is C226-H254; also called ScFvD2B of synthesis; scFv produced by synthesis

The assay deals with T1, PSMA antigen (UniProt Q04609 1-750, limits assumed).
T1 construct: whole, on cells; On PC3-PIP cells in FACS and cell ELISA; in SPR captured on the CM5 chip from the cellular lysate of PC3-PIP by the 7E11 MAb; also called the antigen
T1 sequence (Q04609 whole entry): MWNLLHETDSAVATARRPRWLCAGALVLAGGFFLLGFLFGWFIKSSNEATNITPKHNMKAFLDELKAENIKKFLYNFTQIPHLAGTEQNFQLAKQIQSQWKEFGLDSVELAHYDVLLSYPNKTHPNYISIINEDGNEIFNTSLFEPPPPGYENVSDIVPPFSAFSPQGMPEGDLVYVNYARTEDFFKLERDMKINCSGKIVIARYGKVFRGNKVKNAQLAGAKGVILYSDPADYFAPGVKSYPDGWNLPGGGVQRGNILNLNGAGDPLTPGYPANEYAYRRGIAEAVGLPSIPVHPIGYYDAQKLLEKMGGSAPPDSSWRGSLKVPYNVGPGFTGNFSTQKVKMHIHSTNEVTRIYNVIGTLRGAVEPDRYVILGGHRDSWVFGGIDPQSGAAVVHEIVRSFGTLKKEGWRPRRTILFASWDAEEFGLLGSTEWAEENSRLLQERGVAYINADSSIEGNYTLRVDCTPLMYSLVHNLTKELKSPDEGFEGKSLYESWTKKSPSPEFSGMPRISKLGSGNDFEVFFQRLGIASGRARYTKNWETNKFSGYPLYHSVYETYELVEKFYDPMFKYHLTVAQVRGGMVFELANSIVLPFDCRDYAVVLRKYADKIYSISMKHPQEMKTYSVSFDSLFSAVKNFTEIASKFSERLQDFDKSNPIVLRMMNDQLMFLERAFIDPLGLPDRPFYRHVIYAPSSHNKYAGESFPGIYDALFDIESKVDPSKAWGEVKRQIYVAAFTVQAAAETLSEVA
The experiment in a line: SPR Biacore T200, single-cycle kinetics; PSMA captured from PC3-PIP lysate by 7E11 on CM5 chip. In general terms: SPR reads the build-up and loss of mass on a sensor chip optically.
Regarding B1, the Kd was determined as 2.3 nM and the RU max is 34 RU.

As to B2, the affinity, expressed as Kd, was 2.8 nM and the RU max worked out at 68 RU.

B3 displayed a Kd of 1.9 nM and an RU max of 34 RU.
